# According to patent US20030124664A1:
# Target: human growth hormone (hGH) with the N-terminal phenylalanine, expressed and secreted from plasmid phGH4R (human) (UniProt P01241)
# Test: cell-based or functional assay
# human growth hormone (hGH) with the N-terminal phenylalanine, expressed and secreted from plasmid phGH4R (human), sequence (P01241 27-217): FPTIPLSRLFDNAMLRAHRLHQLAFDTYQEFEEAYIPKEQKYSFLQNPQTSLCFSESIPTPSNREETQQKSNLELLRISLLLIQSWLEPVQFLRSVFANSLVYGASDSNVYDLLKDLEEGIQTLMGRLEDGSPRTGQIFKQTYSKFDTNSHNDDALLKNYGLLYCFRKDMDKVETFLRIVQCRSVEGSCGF
binder,measurement,value
native-sequence aminopeptidase b2324 (product of the E. coli chromosomal yfcK gene) (enzyme) MRSLTHIAKIEPPPVRRVTYVKHYSIQPANLEFNAEGTPVSRDFDDVYFSNDNGLEETRYVFLGGNQLEVRFPEHPHPLFVVAESGFGTGLNFLTLWQAFDQFREAHPQAQLQRLHFISFEKFPLTRADLALAHQHWPELAPWAEQLQAQWPMPLPGCHRLLLDEGRVTLDLWFGDINELTSQLDDSLNQKVDAWFLDGFAPAKNPDMWTQNLFNAMARLARPGGTLATFTSAGFVRRGLQDAGFTMQKRKGFGRKREMLCGVMEQTLPLPCSAPWFNRTGSSKREAAIIGGGIASALLSLALLRRGWQVTLYCADEAPALGASGNRQGALYPLLSKHDEALNRFFSNAFTFARRFYDQLPVKFDHDWCGVTQLGWDEKSQHKIAQMLSMDLPAELAVAVEANAVEQITGVATNCSGITYPQGGWLCPAELTRNVLELAQQQGLQIYYQYQLQNLSRKDDCWLLNFAGDQQATHSVVVLANGHQISRFSQTSTLPVYSVAGQVSHIPTTPELAELKQVLCYDGYLTPQNPANQHHCIGASYHRGSEDTAYSEDDQQQNRQRLIDCFPQAQWAKEVDVSDKEARCGVRCATRDHLPMVGNVPDYEATLVEYASLAEQKDEAVSAPVFDDLFMFAALGSRGLCSAPLCAEILAAQMSDEPIPMDASTLAALNPNRLWVRKLLKGKAVKAG,"Area % des-phe hGH, control strain lysate, 37° C., 0 h (LC-MS)",0.36 Area %
same,"Area % des-phe hGH, control strain lysate, 37° C., 15 h (LC-MS)",46.8 Area %
same,"Area % des-phe hGH, control strain lysate, 37° C., 24 h (LC-MS)",55.3 Area %
same,"Area % des-phe hGH, control strain lysate, RT, 0 h (LC-MS)",0.36 Area %
same,"Area % des-phe hGH, control strain lysate, RT, 15 h (LC-MS)",1.24 Area %
same,"Area % des-phe hGH, control strain lysate, RT, 24 h (LC-MS)",2.15 Area %
same,"Area % des-phe hGH, control strain lysate, RT, 42 h (LC-MS)",3 Area %
